Source: the DeepSol protein solubility set

test: soluble on expression in E. coli; label from the status in PepcDB or PDB records

Which “soluble on expression in E. coli” value does the source give for “MMENYITSFQLRFCPAAYLHLEQLPSLWRSILPYLPQWRDSAHLNAALLDEFSLDTDYEEPHGLGALPLQPQSQLELLLCRLGLVLHGEAIRRCVLASPLQQLLTLVNQETLRQIIVQHELLIGPWPTHWQRPLPTEIESRTMIQSGLAFWLAAMEPQPQAWCKRLSLRLPLATPSEPWLVAESQRPLAQTLCHKLVKQVTPTCSHLFK” here?
The value was “not soluble”.

Which “soluble on expression in E. coli” value does the source give for “MIRKWDTKDTAPLLALWLDSTIHAHPFISESYWRDSVAVVRDVYLPAASTWVWEQDGELKGFVSVLDSRFVGALFVAPGATRQGIGRALLDEVKQHYAWLSLEVYQKNESAVSFYHAQGFRIEDCAWQDDTQHPTWIMRWPADQMP” here?
Its value is “not soluble”.

For “MAKIGFIGFGSMASLIATKIIETEVATPEEIILYSNSKNEHFNQFYTKYPTAELADNEAEIFTKADHSFVCKLPLAVLPLMKDCAAVLTPDRHVVSIAAGVSTSDIIEITPGLQVSKLIPSLTTAVNVGTTLIAHAETVNQTNTSWLETTFEHFGHVMTIREENMDIASDLTSSSPGIIAAIFEQFVEAALRRSSLSDAEVFQMINFALAGTSKLLVEEDYTFSGLIQRVATKDGTTAEGVELSKAQLPNFFDELLDRTQNKYASSEKEIQAQKRELLSLEHHHHHH”, which “soluble on expression in E. coli” value is on record?
Its value is “soluble”.

With “MSLSFTPLHTTSEAFIEKALPWLEDRYFHIAYLNPNGYTAYPQGAFRHYLAFGSEAAIHVSDATRVFETWNEIKKGYTNEWIFVFASYDGKNSVEQLHTSKEAGIAFAAATFFIPEHVWEIQPDGILIHKGSGSSLVTEIQHAEPSTPVQQSDIFVKQVVSKESYFNAFDELQQIIAQGDAYEINYCIPFTAKGNISPAATYQRLNKKTPMPFSVYYKFNTEYILSASPERFIKKTGDTIISQPIKGTSKRGKSKAEDEMLKQQLGTSEKEQSENTMIVDLVRNDLSRTAVAGSVCVPELSGLYTFPNVHQLISTVQSTIDPACSSIDVIQQAFPMGSMTGAPKVNVMKFIDRIESMARGPFSGTVGYMDPHDNFDFNVLIRSIFYNSATQELFMEAGSAITSYAKAETEYEECLLKITPMIHILNNQEGHHHHHH” as the sequence, how does the “soluble on expression in E. coli” value read?
Its value is “soluble”.

Which “soluble on expression in E. coli” value does the source give for “MNSVSEPVPSHGKKPPKNVLAEHGGWKILRILLVSTYKDFRNERRAVLDLVENKLQPIASEKHVILQVEDFSWGSKAHLEEASSLYLIERLCREAVSSSSYFYLHFLGECSGYILDPNFTDQSFLRQHSISTGQSFSEVFLQLSGLQNEKSLFLYRNPSFHQELPFNVTHFIDGPVNRERAKYLTTMVRGEAPASKFIEYSVRTSGINNIHFKHIMFDELSGITKPIEAMVGKYLEKLPDGEAGIPSVEEFMNEYYSQLHVNQTIMSKIEYNLKSHKSILLVGDYCTGKTSILHRIQWKYRDAVIVQAKEKMSAIELRRAIEAKTNVILHDVEQKVVRYLLVDDIHLNFCENFKVKITLSQILQNFNCFAQIFSLLKQIFINFFQASKEAQQYLIGNEELVIVATSRKKKLEVDMNRIIIPHLEPEDILDELSFWLNGGEKEKSGVPSVKASNILKMSQQKRRRSIGTVEDGHQPDENIGWNSLKCRVIGTLGRIGSSDEKCAQLAQLSTLSVVEADMCLMESDGKGHLLIATLCYLTIVESGLNEMELRSLLILEYNLLPIAIRRNYKNLPFDYCPDEFGTTSCTQTLPLRWYFVLHRLGHLFMKIDGDSNHFVLPSACRRVVFKKYLKHPHNLEHFKKNFKEFLTNFSGKEWNRNRQIKMYL” here?
Its value is “not soluble”.

Which “soluble on expression in E. coli” value does the source give for “MAHHHHHHMRIHHAFFRQSCRIMRGIDSARSTPTFVNGTDGMGTIHMLFSKRTHSNTTHSNADSAYMPGSNLHVEHPIVQLPARSLWCKQYPLDISLVRRGEFNDMIGRVRAARHYYQYPSLCAPKIGWNVQMFTLFDGTVFINPINLDALEVEEIAKQKSITFVEAEALWMEKKRREGKTCFAWEPCASCCFLLHFIERPSTVRVRAIAEDGNPFEVTLDKMRARMALHELDHLNGILFTRRIPDTSHVVPLEGFSTMSEWPDDYPSLEARSTFLYTTFTPPYTFITDSVEDAQLLDRKFEDGIYPGCEHDRRMRIESAAFEELQRAQWRMEKTREENSEEYDGVEGEVDEEDQEHCEETAAGGVAVKDNAPQ” here?
The value was “not soluble”.
